Reference: patent US10260060B2, “Genetically modified phenylpyruvate decarboxylase, processes to prepare, and uses thereof” (Dow Global Technologies LLC, priority 2014, dated 2019)
Where a chain is given by its changes, count along the chain named. Numbers in names are those of the source.

Key:
[1] = system: Azospirillum brasilense phenylpyruvate decarboxylase (AbPPDC); details: Spaepen et al., J. Bacteriol., 2007; cited from earlier work
[2] = substrate: CCCCCCCC(=O)C(=O)O; assay: HTP AbPPDC coupled enzyme assay (ADH6/NADPH), 2-ketoacid decarboxylation kinetics, Q536I; type: biochemical, Azospirillum brasilense; details: other: pH 6.8, 30° C, 2-ketoacid 0 to 4 mM, Michaelis-Menten equation, mean ± standard error
Experimental: (§1) The evaluation of the AbPPDC variants is performed in two steps using the high-throughput enzyme assay described hereinbelow. Initially, all the variants are tested for activity against a single high concentration (2 mM) of 2-KH and 2-KN (as shown in Table 1). Following the initial evaluation, detailed kinetic analysis is performed on a select number of variants to determine the maximal rate (kcat), substrate concentration yielding half maximal rate (K0.5, equivalent of KM for enzymes following Michaelis-Menten kinetics), and the catalytic efficiency of the enzyme (kcat/K0.5) against 2-KO and 2-KN (as shown in Table 2). AbPPDC variants, having higher specificity (higher kcat/K0.5) for 2-KN, will be efficient in producing octanal and chemicals derived from it inside the cells.
(§2) To evaluate the substrate specificity of the wild type AbPPDC and its variants listed in Table 1, genes of all the proteins are expressed in E. coli cells separately and the protein products are isolated from the cells. The gene sequence of the Azospirillum brasilense phenylpyruvate decarboxylase (GenBank: Accession no. L26240) is downloaded from the NCBI database. Codons of 13 additional amino acids that include six (6) histidines (his) are added upstream of the Met-1 codon of the AbPPDC gene sequence. Such a modification allows expression of a Histidine-tagged AbPPDC having 13 additional amino acids on the N-terminus. The additional amino acids are attached as an aid for purifying the protein in a single step using Ni-NTA chromatography. The entire AbPPDC sequence with 13 additional amino acids (SEQ ID 2) is chemically synthesized and then cloned into the pRSFDuet-1 vector (EMD Biosciences) downstream of the T7 polymerase promoter by Synthetic Genomics, Inc. (San Diego, Calif.). The final vector is sequenced by Synthetic Genomics, Inc. before shipping.
(§3) Genes of the AbPPDC variants listed in Table 1 are either chemically synthesized or generated using New England Biolab's Q5 Site-directed Mutagenesis Kit (cat. no. E0554S) and cloned into the pRSFDuet-1 vector. The pRSFDuet-1 vector containing AbPPDC or the AbPPDC variant gene is transformed into E. coli, AbPPDC or its variant, then expressed and eventually purified, as described below.
(§4) A high-throughput AbPPDC coupled enzyme assay is developed for evaluating the substrate specificity of AbPPDC variants. The assay involves reducing the aldehyde produced from AbPPDC mediated 2-ketoacid decarboxylation, using an alcohol dehydrogenase (ADH6, GenBank: Accession No. NP 014051.3). The initial velocities of the AbPPDC catalyzed reactions are determined from the rates of oxidation of reduced nicotinamide adenine dinucleotide phosphate (NADPH) occurring during the ADH6 catalyzed reduction of aldehyde.
(§5) The HTP screening assay involves incubating 2 mM 2-KH or 2 mM 2-KN with 0.5 mM thiamine diphosphate, 0.35 mM NADPH, 4.7 micrograms (μg) of yeast ADH6 (GenBank: Accession No. NP 014051.3) and 0.3 milligrams per milliliter (mg/mL) bovine serum albumin (BSA) in AbPPDC assay buffer (50 mM 3-(N-morpholino)propanesulfonic acid, pH 6.8, containing 2.5 mM magnesium chloride (MgCl2)) at 30° C. The reaction is started by addition at 30° C. of working enzyme stock containing from 0.5 μg to 3.5 μg of AbPPDC variant diluted in AbPPDC assay buffer containing 1 mg/mL BSA. The plate containing the 200 μL of reaction mixture is centrifuged at 2500×g for 15 sec and the absorbance change of the reaction mixture followed spectrophotometrically at 340 nm on a BioTek™ plate reader, pre-equilibrated at 30° C. Initial velocity of the enzyme reaction is calculated using the rate of NADPH consumption at 340 nm and the extinction coefficient of NADPH (6.22 mM^−1 cm^−1). The activity of all the variants is normalized with the amount of enzyme present in the reaction mixture and expressed as nanomoles per minute per milligram (nmol·min^−1·mg^−1). […]

[3] = substrate: CCCCCCC(=O)C(=O)O; assay: as above; type: biochemical, Azospirillum brasilense; details: other: pH 6.8, 30° C, 2-ketoacid 0 to 4 mM, Michaelis-Menten equation, mean ± standard error
Experimental: as §1, §2, §3, §4, §5

[4] = substrate: CCCCCCCC(=O)C(=O)O; assay: HTP AbPPDC coupled enzyme assay (ADH6/NADPH), 2-ketoacid decarboxylation kinetics, M461L; type: biochemical, Azospirillum brasilense; details: other: pH 6.8, 30° C, 2-ketoacid 0 to 4 mM, Hill equation, mean ± standard error
Experimental: as §1, §2, §3, §4, §5

[5] = substrate: CCCCCCC(=O)C(=O)O; assay: as above; type: biochemical, Azospirillum brasilense; details: other: pH 6.8, 30° C, 2-ketoacid 0 to 4 mM, Hill equation, mean ± standard error
Experimental: as §1, §2, §3, §4, §5

[6] = substrate: CCCCCCCC(=O)C(=O)O; assay: HTP AbPPDC coupled enzyme assay (ADH6/NADPH), 2-ketoacid decarboxylation kinetics, F385L; type: biochemical, Azospirillum brasilense; details: other: pH 6.8, 30° C, 2-ketoacid 0 to 4 mM, Hill equation, mean ± standard error
Experimental: as §1, §2, §3, §4, §5

[7] = substrate: CCCCCCC(=O)C(=O)O; assay: as above; type: biochemical, Azospirillum brasilense; details: other: pH 6.8, 30° C, 2-ketoacid 0 to 4 mM, Hill equation, mean ± standard error
Experimental: as §1, §2, §3, §4, §5

[8] = substrate: CCCCCCCC(=O)C(=O)O; assay: HTP AbPPDC coupled enzyme assay (ADH6/NADPH), 2-ketoacid decarboxylation kinetics, wild type; type: biochemical, Azospirillum brasilense; details: other: pH 6.8, 30° C, 2-ketoacid 0 to 4 mM, Hill equation, mean ± standard error
Experimental: as §1, §2, §4
(§6) The HTP screening assay involves incubating 2 mM 2-KH or 2 mM 2-KN with 0.5 mM thiamine diphosphate, 0.35 mM NADPH, 4.7 micrograms (μg) of yeast ADH6 (GenBank: Accession No. NP 014051.3) and 0.3 milligrams per milliliter (mg/mL) bovine serum albumin (BSA) in AbPPDC assay buffer (50 mM 3-(N-morpholino)propanesulfonic acid, pH 6.8, containing 2.5 mM magnesium chloride (MgCl2)) at 30° C. The reaction is started by addition at 30° C. of working enzyme stock containing from 0.5 μg to 3.5 μg of AbPPDC variant diluted in AbPPDC assay buffer containing 1 mg/mL BSA. The plate containing the 200 μL of reaction mixture is centrifuged at 2500×g for 15 sec and the absorbance change of the reaction mixture followed spectrophotometrically at 340 nm on a BioTek™ plate reader, pre-equilibrated at 30° C. Initial velocity of the enzyme reaction is calculated using the rate of NADPH consumption at 340 nm and the extinction coefficient of NADPH (6.22 mM^−1 cm^−1). The activity of all the variants is normalized with the amount of enzyme present in the reaction mixture and expressed as nanomoles per minute per milligram (nmol·min^−1·mg^−1). Protein concentrations for normalizing the activities are determined using the 660 nm total protein assay kit from Pierce Biotechnology Inc., available from Thermo Fisher Scientific, Inc., using BSA as the standard.
(§7) The kinetic parameters of the decarboxylation of 2-ketooctanoate (2-KO) and 2-ketononanoate (2-KN) by AbPPDC and its variants are also determined using the same HTP AbPPDC coupled enzyme assay, except that the concentrations of 2-KO or 2-KN are varied from 0 to 4 mM. […]

[9] = substrate: CCCCCCC(=O)C(=O)O; assay: as above; type: biochemical, Azospirillum brasilense; details: other: pH 6.8, 30° C, 2-ketoacid 0 to 4 mM, Hill equation, mean ± standard error
Experimental: as §1, §2, §4, §6, §7

Molecule: O=C(O)C(=O)Cc1ccccc1 [phenylpyruvic acid]
- catalytic efficiency [1]: high catalytic efficiencies

B1: Azospirillum brasilense phenylpyruvate decarboxylase (AbPPDC) variant Q536I, SEQ ID 38 (Azospirillum brasilense; Q536I) (protein)
chain: MKLAEALLRALKDRGAQAMFGIPGDFALPFFKVAEETQILPLHTLSHEPAVGFAADAAARYSSTLGVAAVTYGAGAFNMVNAVAGAYAEKSPVVVISGAPGTTEGNAGLLLHHQGRTLDTQFQVFKEITVAQARLDDPAKAPAEIARVLGAARALSRPVYLEIPRNMVNAEVEPVGDDPAWPVDRDALAACADEVLAAMRSATSPVLMVCVEVRRYGLEAKVAELAQRLGVPVVTTFMGRGLLADAPTPPLGTYIGVAGDAEITRLVEESDGLFLLGAILSDTNFAVSQRKIDLRKTIHAFDRAVTLGYHTYADIPLAGLVDALLEGLPPSDRTTRGKEPHAYPTGLQADGEPIAPMDIARAVNDRVRAGQEPLLIAADMGDCLFTAMDMIDAGLMAPGYYAGMGFGVPAGIGAQCVSGGKRILTVVGDGAFQMTGWELGNCRRLGIDPIVILFNNASWEMLRTFQPESAFNDLDDWRFADMAAGMGGDGVRVRTRAELKAALDKAFATRGRFQLIEAMIPRGVLSDTLARFVQGIKRLHAAPRE
notes: made in house; host or cells: E. coli BL21(DE3)
- K0.5 [2]: 0.69 ± 0.09 mM
- kcat [2]: 1.05 ± 0.05 s⁻¹
- kcat/Km [2]: 1530 ± 217 M⁻¹ s⁻¹
- K0.5 [3]: 0.71 ± 0.07 mM
- kcat [3]: 0.533 ± 0.0183 s⁻¹
- kcat/Km [3]: 750 ± 83 M⁻¹ s⁻¹

B2: Azospirillum brasilense phenylpyruvate decarboxylase (AbPPDC) variant M461L, SEQ ID 18 (Azospirillum brasilense; M461L) (protein)
chain: B1 chain with M461L, I536Q
notes: as for B1
- K0.5 [4]: 0.97 ± 0.04 mM
- kcat [4]: 0.467 ± 0.017 s⁻¹
- kcat/Km [4]: 483 ± 23.3 M⁻¹ s⁻¹
- K0.5 [5]: 1.4 ± 0.1 mM
- kcat [5]: 0.2 ± 0.0083 s⁻¹
- kcat/Km [5]: 148 ± 12 M⁻¹ s⁻¹

B3: Azospirillum brasilense phenylpyruvate decarboxylase (AbPPDC) variant F385L, SEQ ID 8 (Azospirillum brasilense; F385L) (protein)
chain: B1 chain with F385L, I536Q
notes: as for B1
- K0.5 [6]: 2.39 ± 0.26 mM
- kcat [6]: 0.283 ± 0.017 s⁻¹
- kcat/Km [6]: 117 ± 16.7 M⁻¹ s⁻¹
- K0.5 [7]: 2.3 ± 0.5 mM
- kcat [7]: 0.0283 ± 0.005 s⁻¹
- kcat/Km [7]: 13 ± 3.3 M⁻¹ s⁻¹

B4: Azospirillum brasilense phenylpyruvate decarboxylase (AbPPDC), wild type, SEQ ID 4 (GenBank L26240), 13-amino acid N-terminal histidine tag (Azospirillum … (protein)
chain: B1 chain with I536Q
notes: as for B1
- K0.5 [8]: 1.23 ± 0.02 mM
- kcat [8]: 0.333 ± 0 s⁻¹
- kcat/Km [8]: 270 ± 6.7 M⁻¹ s⁻¹
- K0.5 [9]: 1.7 ± 0.1 mM
- kcat [9]: 0.25 ± 0.012 s⁻¹
- kcat/Km [9]: 150 ± 12 M⁻¹ s⁻¹
